The values that follow come from patent US20190161551A1.

Assay [1] has as its target human TrkB extracellular domain (aa Cys32-His430) expressed with the Fc portion of human IgG1 at the C-terminus (human). Put plainly: competition ELISA, 500 pM hTrkB-hFc pre-mixed with mAb, plate-coated hBDNF.
The target is the same in assay [2]. Put plainly: competition ELISA, 500 pM hTrkB-hFc pre-mixed with mAb, plate-coated hNT-4.

human TrkB extracellular domain (aa Cys32-His430) expressed with the Fc portion of human IgG1 at the C-terminus (human), sequence (chain, as listed by the source limits assumed): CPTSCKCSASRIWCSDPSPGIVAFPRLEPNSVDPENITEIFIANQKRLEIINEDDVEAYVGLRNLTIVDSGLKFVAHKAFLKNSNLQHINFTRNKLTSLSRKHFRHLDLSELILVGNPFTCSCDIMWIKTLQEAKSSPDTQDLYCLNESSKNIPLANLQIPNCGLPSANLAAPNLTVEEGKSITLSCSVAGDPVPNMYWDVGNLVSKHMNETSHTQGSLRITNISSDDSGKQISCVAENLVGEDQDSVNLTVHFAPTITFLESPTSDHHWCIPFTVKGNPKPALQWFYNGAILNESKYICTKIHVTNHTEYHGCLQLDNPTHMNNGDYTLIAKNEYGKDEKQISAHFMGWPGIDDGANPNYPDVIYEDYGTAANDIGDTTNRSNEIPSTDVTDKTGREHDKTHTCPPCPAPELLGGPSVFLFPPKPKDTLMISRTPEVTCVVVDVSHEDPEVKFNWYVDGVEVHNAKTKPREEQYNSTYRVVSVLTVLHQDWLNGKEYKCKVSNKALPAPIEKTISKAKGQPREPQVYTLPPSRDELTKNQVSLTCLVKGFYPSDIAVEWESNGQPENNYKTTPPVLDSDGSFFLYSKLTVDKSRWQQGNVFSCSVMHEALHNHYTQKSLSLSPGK

As to “hIgG4 negative isotype control (antibody)”, the % Blockade with 100 nM antibody in assay [1] was -31%; in assay [2], -45%.
For “mIgG1 negative isotype control (antibody)”, in that order: -19% and -14%.
